Assays:
[1] = biological target: rabies virus antibody (antigen), first of the two types used in the screening ELISA (AS 1) (rabies virus); assay: ELISA, 150 µl culture supernatant
[2] = biological target: rabies virus antibody (antigen), second of the two types used in the screening ELISA (AS 2) (rabies virus); assay: ELISA, 150 µl culture supernatant
[3] = biological target: rabies virus antibody (antigen), first of the two types used in the screening ELISA (AS 1) (rabies virus); assay: ELISA, 10 ml culture cell breakage liquid
[4] = biological target: rabies virus antibody (antigen), second of the two types used in the screening ELISA (AS 2) (rabies virus); assay: ELISA, 10 ml culture cell breakage liquid

Binder | AS 1 (Antigen Specificity, ELISA signal) [1] | AS 2 (Antigen Specificity, ELISA signal) [2] | AS 1 (Antigen Specificity, ELISA signal) [3] | AS 2 (Antigen Specificity, ELISA signal) [4]
LC22F6 (protein) light: DIVMTQSPLSLPVTPGEPASISCRSSQSLLHSNGFNYLDWYLQKPGQSPQLLIYLGSTRASGVPDRFSGSGSGTDFTLRISRVEAEDVGVYFCMQAVQTPFTFGPGTRLDIKRTVAAPSVFIFPPSDEQLKSGTASVVCLLNNFYPREAKVQWKVDNALQSGNSQESVTEQDSKDSTYSLSSTLTLSKADYEKHKVYACEVTHQGLSSPVTKSFNRGEC | 0.275 | 0.175 | 0.5 | 2.77
LC23F1 (protein) light: DIVMTQTPLSSPVTLGQPASISCRSSQSLVHSDGNTYLSWLQQRPGQPPRLLIYKISNRFSGVPDRFSGSGAGTDFTLKISRVEAEDVGIYYCMQGLQTPLTFGGGTKVDLKRTVAAPSVFIFPPSDEQLKSGTASVVCLLNNFYPREAKVQWKVDNALQSGNSQESVTEQDSKDSTYSLSSTLTLSKADYEKHKVYACEVTHQGLSSPVTKSFNRGEC | 0.249 | 0.219 | 0.821 | 2.95

From US20120322135A1
